Our source for the protein stability index values is the supplement of paper PMC10724198.

± gives the standard deviation of the averaged measurements.
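Further: PSI is a weighted mean of sequencing reads over stability bins, variants kept only with over 10 reads, mCherry proximal and sfGFP distal, peptide attached via GGGS linker.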

In this series the test system is Saccharomyces cerevisiae. The experiment in a line: protein stability index of tFT-peptide fusion (C-terminal peptide) (PSI (0-1 scale)); higher = more stable (slower turnover). The following applies: genetic background: wild type; temperature: 30 C. The protocol: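 Multiplexed protein stability (MPS) profiling in S. cerevisiae. Random 12-aa peptides (tFT-X12 library) are fused to the C-terminus of a sfGFP-mCherry tandem fluorescent timer, after mCherry and a GGGS linker. Cells are FACS-sorted into 8 mCherry/sfGFP bins and deep-sequenced. The protein stability index (PSI) is the read-weighted bin average, scaled from 0 (unstable) to 1 (stable). Only peptides with >10 reads are reported; cells were grown at 30 °C in SC-His with glucose.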
Take GAVRGGSGDWGR: the protein stability index came to 0.723 ± 0.0083.
Next, GAWFSWLGEVVG: 0.701 ± 0.075; GCASTNTPSTTP: 0.714 ± 0.022.
GCENSRRSWRPD registered a protein stability index of 0.609 ± 0.028.
With GCFTLLCFRRIL, the protein stability index amounted to 0.511 ± 0.012.
The figure for GCGCVVRVWSGV is 0.6621 ± 0.0013.
The figure for GCGDSLGGERRE is 0.643 ± 0.1; for GCLCAGSMVGDL it is 0.666 ± 0.015; for GCLLVVGGVWGS it is 0.625 ± 0.036.
As to GCLVGRGQRGTE, the protein stability index is 0.686 ± 0.026.
The figure for GCQVAVGRAGGV is 0.659 ± 0.023; for GCRGGLREAGVW it is 0.768 ± 0.024.
GCRLVSDCRVFV registered a protein stability index of 0.67 ± 0.031.
The figure for GCSLTFAGLFCI is 0.629 ± 0.01; for GCTNSCGRHVKG it is 0.6426 ± 0.006; for GCWGGLGAPGVS it is 0.734 ± 0.028.
Next, GDFFVSFRCLLL: 0.606 ± 0.027; GDNRSVSRKAEW: 0.614 ± 0.047.
The figure for GDRAKTKQRESN is 0.671 ± 0.01; for GDTKKRTQGRGV it is 0.653 ± 0.011; for GDTRILKSRPEI it is 0.699 ± 0.0098.
For the sequence GEAFLVRRSRNR, the protein stability index came to 0.722 ± 0.082.
The figure for GEAVTGQRGATS is 0.71 ± 0.025; for GEDGCGWSEAGG it is 0.664 ± 0.017; for GEEGAWSRQGPP it is 0.658 ± 0.035.
The figure for GEEGQRGRGWRS is 0.733 ± 0.039; for GEGNAIGQVVRN it is 0.681 ± 0.021; for GEILTLYLLPRL it is 0.705 ± 0.052.
Next, GELADVVWLGGE: 0.652 ± 0.057; GENTRKNNVVGE: 0.69 ± 0.017; GENVVPGLHTQV: 0.675 ± 0.064.
For GEPSYLEYSNLV, the protein stability index amounted to 0.765 ± 0.042.
Next, GEQEKRFFLSPL: 0.717 ± 0.021; GERWGGGRAAET: 0.714 ± 0.076; GETGGRSQDARI: 0.744 ± 0.088.
The figure for GEVAQDLGRDIL is 0.7124 ± 0.0019.
Next, GEYLWVHRIISE: 0.679 ± 0.086.
In turn, GEYYAPVVGRRF had a protein stability index of 0.7121 ± 0.0031.
Consider GFCLGSLPQRLD, for which the protein stability index is 0.65 ± 0.019.
As to GFCWFRGVGSGG, the protein stability index was 0.683 ± 0.044.
The figure for GFFNNRLASSLR is 0.734 ± 0.098.
Next, GFFRRNLGRVMD: 0.608 ± 0.074; GFGLACGRCMGS: 0.623 ± 0.098; GFLGLLASFFVL: 0.604 ± 0.022.
GFLSSLRLLPPF showed a protein stability index of 0.688 ± 0.029.
The figure for GFLSSSKSCRCH is 0.632 ± 0.059; for GFNRRVWRGLGV it is 0.721 ± 0.053.
The sequence GFRLCVFGSSLF returned a protein stability index of 0.6956 ± 0.0025.
Next, GFSLGAPRPFVQ: 0.718 ± 0.039.
The figure for GFSSVPFFPLSR is 0.7142 ± 0.003; for GFTCGCSSMKNF it is 0.718 ± 0.021.
GFVPRSFNTLTS: the protein stability index turned out to be 0.664 ± 0.053.
Next, GFVPWVCGVRMS: 0.689 ± 0.051.
Next, GFWESLGGVGAE: 0.697 ± 0.049.
The figure for GGAAAWAERCGG is 0.726 ± 0.0097; for GGACGRRSEDCQ it is 0.633 ± 0.087.
In the case of GGAEEGRANCWN, the protein stability index came out at 0.722 ± 0.1.
Next, GGAFPGPGFGLD: 0.68 ± 0.017; GGAPMRPGGGTC: 0.678 ± 0.065; GGASRLARMGWW: 0.642 ± 0.034.
The figure for GGAVGYRLVACD is 0.656 ± 0.11.
The figure for GGAVSRVGEWGR is 0.7881 ± 0.0073.
Consider GGCGSAGRGQRG, for which the protein stability index was found to be 0.697 ± 0.062.
The figure for GGCGWRGDGGGA is 0.679 ± 0.13.
The sequence GGCSRYVLILFD returned a protein stability index of 0.686 ± 0.15.
The figure for GGDCGERRGNEV is 0.65 ± 0.05; for GGEGWGAFWGGE it is 0.713 ± 0.05.
Next, GGELGGTGVGGG: 0.6881 ± 0.0016; GGFKGGKWVVEG: 0.606 ± 0.021; GGFRREPWEILR: 0.649 ± 0.0012.
Next, GGFSLTGSLCID: 0.687 ± 0.035; GGGAAGILWGLG: 0.694 ± 0.013; GGGAGGVVGGIS: 0.694 ± 0.027.
GGGAGLVGGCVA returned a protein stability index of 0.735 ± 0.019.
The figure for GGGARQAGGDNI is 0.666 ± 0.045.
Next, GGGCGGACRPVG: 0.692 ± 0.14; GGGCGGGGSSCA: 0.654 ± 0.069; GGGCGGGQAGCQ: 0.691 ± 0.043.
The sequence GGGCGMEPGCGP had a protein stability index of 0.687 ± 0.062.
The figure for GGGFRVLCVGLG is 0.627 ± 0.037.
On to GGGGEDQSQGPP, for which the protein stability index is 0.69 ± 0.027.
Next, GGGGFGFGWSMV: 0.709 ± 0.059; GGGGGECCFLEG: 0.753 ± 0.081; GGGGGGGSRTGA: 0.691 ± 0.037.
As to GGGGGGPSGGSG, the protein stability index stood at 0.701 ± 0.079.
In turn, GGGGGGVDWFEI displayed a protein stability index of 0.71359 ± 2.1e-05.
The figure for GGGGGISGGRWG is 0.667 ± 0.075.
The figure for GGGGGLRVSCGT is 0.679 ± 0.083; for GGGGGVWGVGRV it is 0.66 ± 0.047; for GGGGRWGVLVLG it is 0.504 ± 0.0062.
In turn, GGGGVACAGCTV showed a protein stability index of 0.637 ± 0.056.
Turning to GGGGWGGAGLVG, the protein stability index was found to be 0.704 ± 0.014.
Consider GGGMRLVKRACY, for which the protein stability index was 0.64 ± 0.031.
Take GGGNRGTGCDWG: the protein stability index was 0.628 ± 0.013.
The figure for GGGPGRGVWVRV is 0.705 ± 0.021.
The figure for GGGRCSGDGDRG is 0.708 ± 0.063; for GGGREGNGRERS it is 0.594 ± 0.053.
The figure for GGGRWWRVGVGF is 0.729 ± 0.021.
As for GGGVDSGWGKGE, the protein stability index worked out at 0.688 ± 0.024.
The figure for GGGVGVPDSASE is 0.681 ± 0.047.
Consider GGKKRGVRMCGG, for which the protein stability index was 0.655 ± 0.013.
Next, GGLGGWAECGRW: 0.748 ± 0.11; GGLLGRLWDGGA: 0.723 ± 0.04.
As for GGLREPIYQLWV, the protein stability index was 0.648 ± 0.076.
GGMAFSRPSFNG: the protein stability index amounted to 0.729 ± 0.032.
Next, GGMMRGHRHRCW: 0.812 ± 0.0095.
The figure for GGPPTQAKPSPR is 0.647 ± 0.012; for GGPSLTRCAAFG it is 0.677 ± 0.063; for GGQGFWRLWCLG it is 0.686 ± 0.05.
GGQRPKRQQLTT gave a protein stability index of 0.7022 ± 0.0058.
Next, GGREVGQVLWDD: 0.667 ± 0.024; GGREWRGGQGEV: 0.669 ± 0.12.
Next, GGRGGRSGTEGE: 0.6763 ± 0.0011; GGRGPRGAANRG: 0.634 ± 0.066.
The figure for GGRRKKRVTPGE is 0.656 ± 0.0097; for GGRRRAWLGGRW it is 0.746 ± 0.012.
